The record followed here is PMC12846365 (2026).

Usually Kd stands for the free concentration of one partner at which half of the binding sites on the other are occupied at equilibrium, for simple one-to-one binding. The term koff denotes the first-order rate constant of dissociation. A lower koff goes with slow dissociation.

Assay [1] concerns the target 48d IC as analyte in SPR (non-crosslinked control) (HIV-1 strain BG505, UniProt Q2N0S6). Description: SPR. A general note: Surface plasmon resonance follows binding to a sensor surface in real time, without labels.
For assay [2], the target named is 48d.cl IC as analyte in SPR (Fab-Fab-crosslinked [change]) (HIV-1 strain BG505, UniProt Q2N0S6). Description: SPR.

B1: 2mutVRC01 (antibody, V domains shown)
VH: QVQLVQSGGQMKKPGESMRISCRASGYEFIDCTLNWIRLAPGKRPEWMGWLKPRGGAVNYARPLQGRVTMTRDVYSDTAFLELRSLTVDDTAVYFCTRGKNCDYNWDFEHWGRGTPVIVSS
VL: EIVLTQSPGTLSLSPGETAIISCRTSQYGSAALAWYQQRPGQAPRLVIYSGSTRAAGIPDRFSGSRWGPDYNLTISNLESGDFGVYYCQQYEFFGQGTKVQVD
In assay [1], B1 yielded a Kd of 810 pM and a koff of 0.00031 s⁻¹. Besides, in assay [2], the Kd was 520 pM and the koff is 0.00012 s⁻¹.
